B1: Azoarcus group I ribozyme (parent)
chain: GUGCCUUGCGCCGGGAAACCACGCAAGGGAUGGUGUCAAAUUCGGCGAAACCUAAGCGCCCGCCCGGGCGUAUGGCAACGCCGAGCCAAGCUUCGGCGCCUGCGCCGAUGAAGGUGUAGAGACUAGACGGCACCCACCUAAGGCAAACGCUAUGGUGAAGGCAUAGUCCAGGGAGUGGCGAAAGUCACACAAACCGG

Variants of: B1
Test: reverse-splicing fitness (ratio to wild type); higher = more active; in vitro selection; Mg2+ level not given
Summary of the method: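 An in vitro group I ribozyme library with randomized positions was T7-transcribed and gel-purified. In triplicate, 10 pmol RNA in EPPS pH 7.5 was reacted with 50 pmoles of a 30-nt RNA substrate for 1 h at 37 °C across several added MgCl2 levels (1–48 mM), then stopped with EDTA. Products were reverse transcribed from a substrate-complementary primer, PCR-amplified and sequenced (HiSeq 4000). Fitness is a variant's read proportion after selection over that before, normalised to wild type.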

Variant	reverse-splicing fitness
C82A A111G A145C C150A C169U	0.0104
C82A A111G A120U A145U C169G U176G	0.00177
C82A A111G A120U A145U C169G U176C	0.00235
C82A A111G A120U A145U C169G U176A	0.00272
C82A A111G A145U C150A C169U U176C	0.0109
C82A A111G A145U C150A C169U U176G	0.00627
C82A A111G A145U C150A C169U U176A	0.0132
C82A A111G A145U C150G C169U U176G	0.00668
C82A A111G A145U C150G C169U U176A	0.00709
C82A A111G A145U C150G C169U U176C	0.0117
C82A A111G A145G C150G C169U U176G	0.00825
C82A A111G A145G C150G C169U U176A	0.0112
C82A A111G A145G C150G C169U U176C	0.0123
C82A A111G A120U C150G C169U U176A	0.00322
C82A A111G A120U C150G C169U U176C	0.00511
C82A A111G A120U C150G C169U U176G	0.00249
C82A A111G A145G C169A	0.0102
C82A A111G A145G C169U	0.0126
C82A A111G A145G C169G	0.00988
C82A A111G A145G C150G C169G U176C	0.011
C82A A111G A145G C150G C169G U176G	0.00597

Variant	reverse-splicing fitness
C82A A111G A145G C150G C169G U176A	0.0112
C82A A111G A120U U176A	0.0096
C82A A111G A120U U176G	0.00504
C82A A111G A120U U176C	0.0161
C82A A111G A120U A145U C169U U176G	0.00199
C82A A111G A120U A145U C169U U176A	0.00277
C82A A111G A120U A145U C169U U176C	0.00256
C82A A111G A120U C150U U176G	0.00388
C82A A111G A120U C150U U176A	0.00851
C82A A111G A120U C150U U176C	0.0108
C82A A111G A145U C150U C169U U176G	0.00658
C82A A111G A145U C150U C169U U176A	0.014
C82A A111G A145U C150U C169U U176C	0.0116
C82A A111G A145U U176G	0.0692
C82A A111G A145U U176C	0.249
C82A A111G A145U U176A	0.179
C82A A111G A120U A145U C150U U176G	0.00398
C82A A111G A120U A145U C150U U176C	0.0108
C82A A111G A120U A145U C150U U176A	0.00864
C82A A111G A145G C150U U176A	0.115
C82A A111G A145G C150U U176G	0.0317

Variant	reverse-splicing fitness
C82A A111G A145G C150U U176C	0.174
C82A A111G C150G U176C	0.0152
C82A A111G C150G U176A	0.00793
C82A A111G A120U A145U C150U	0.0232
C82A A111G A120U A145U C150G	0.00746
C82A A111G A120U A145U C150U C169U U176A	0.00273
C82A A111G A120U A145U C150U C169U U176C	0.00305
C82A A111G A120U A145U C150U C169U U176G	0.00222
C82A A111G A120U A145U C169G	0.00329
C82A A111G A120U A145U C169U	0.00422
C82A A111G A120U A145U C169A	0.00232
C82A A111G A145G C150A C169G U176G	0.00702
C82A A111G A145G C150A C169G U176C	0.0256
C82A A111G A145G C150A C169G U176A	0.0224
C82A A111G A145C C150A U176C	0.0184
C82A A111G A145C C150A U176G	0.00802
C82A A111G A145C C150A U176A	0.015
C82A A111G A120U A145U C150G C169G	0.00311
C82A A111G A120U A145U C150G C169A	0.00373
C82A A111G A120U A145U C150G C169U	0.00268
C82A A111G C150A U176A	0.0284

Variant	reverse-splicing fitness
C82A A111G C150A U176C	0.0387
C82A A111G C150A U176G	0.0144
C82A A111G A145U C150A C169A U176G	0.00674
C82A A111G A145U C150A C169A U176A	0.0124
C82A A111G A145U C150A C169A U176C	0.0106
C82A A111G A120U C169G	0.00374
C82A A111G A120U C169A	0.00261
C82A A111G A120U C169U	0.00452
C82A A111G C150A C169G	0.00926
C82A A111G C150A C169U	0.0114
C82A A111G C150A C169A	0.0109
C82A A111G A145G C150G C169A U176C	0.0154
C82A A111G A145G C150G C169A U176G	0.00909
C82A A111G A145G C150G C169A U176A	0.0148
C82A A111G A120U C169G U176G	0.00181
C82A A111G A120U C169G U176A	0.00294
C82A A111G A120U C169G U176C	0.00341
C82A A111G A145C C150G C169A	0.00898
C82A A111G A145C C150G C169U	0.00926
C82A A111G A145C C150G C169G	0.00702
